# According to publication PMC10732415, “Bacteriophage-encoded 24B_1 molecule resembles herpesviral microRNAs and plays a crucial role in the development of both the virus and its host”:
# Target: Hfq (Escherichia coli, UniProt P0A6X3 1-102)
# Assay: EMSA; 1 mM Mg2+; Hfq up to 100 nM
# Conditions: protein: recombinant; chain copies: 6; label: 32P; predicted 4-bp helix
# Hfq, sequence (P0A6X3 whole entry): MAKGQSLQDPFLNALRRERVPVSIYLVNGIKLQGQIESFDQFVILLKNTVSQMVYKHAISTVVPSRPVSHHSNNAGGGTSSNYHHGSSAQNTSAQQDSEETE
binder,measurement,value
"UAACGUUAAGUUGACUCGGG (ssRNA) [mature 24B_1 RNA, 20 nt]",binding result,no binding
